Results as given in US20070031418A1 (published 2007).

B1: humanized anti-trkC agonist antibody A5 (antibody, V domains shown)
VH: QVQLVQSGAEVKKPGASVKVSCKASGYTFTSYRIHWVRQAPGQGLEWMGEIYPSNARTNYNEKFKSRVTMTRDTSTSTVYMELSSLRSEDTAVYYCARKYYYGNTRRSWYFDVWGQGTTVTVS
VL: DIQMTQSPSSLSASVGDRVTITCRASESIDNYGISFLAWYQQKPGKAPKLLIYAASNRGSGVPSRFSGSGSGTDFTFTISSLQPEDIATYYCQQSKTVPRTFGQGTKLEIKR

Key:
[1] = molecular target: trkC receptor in stable trkC expressing CHO cells; test: cell-based or functional assay
[2] = molecular target: trkC receptor of embryonic rat trigeminal neurons (rat) (UniProt Q03351); test: cell-based or functional assay
human trkC = molecular target: T1, human trkC (human, UniProt Q16288 32-429, limits assumed); test: BIAcore analysis (SPR); format not stated
T1 construct: also called htrkC

trkC receptor of embryonic rat trigeminal neurons (rat), sequence (Q03351 32-864): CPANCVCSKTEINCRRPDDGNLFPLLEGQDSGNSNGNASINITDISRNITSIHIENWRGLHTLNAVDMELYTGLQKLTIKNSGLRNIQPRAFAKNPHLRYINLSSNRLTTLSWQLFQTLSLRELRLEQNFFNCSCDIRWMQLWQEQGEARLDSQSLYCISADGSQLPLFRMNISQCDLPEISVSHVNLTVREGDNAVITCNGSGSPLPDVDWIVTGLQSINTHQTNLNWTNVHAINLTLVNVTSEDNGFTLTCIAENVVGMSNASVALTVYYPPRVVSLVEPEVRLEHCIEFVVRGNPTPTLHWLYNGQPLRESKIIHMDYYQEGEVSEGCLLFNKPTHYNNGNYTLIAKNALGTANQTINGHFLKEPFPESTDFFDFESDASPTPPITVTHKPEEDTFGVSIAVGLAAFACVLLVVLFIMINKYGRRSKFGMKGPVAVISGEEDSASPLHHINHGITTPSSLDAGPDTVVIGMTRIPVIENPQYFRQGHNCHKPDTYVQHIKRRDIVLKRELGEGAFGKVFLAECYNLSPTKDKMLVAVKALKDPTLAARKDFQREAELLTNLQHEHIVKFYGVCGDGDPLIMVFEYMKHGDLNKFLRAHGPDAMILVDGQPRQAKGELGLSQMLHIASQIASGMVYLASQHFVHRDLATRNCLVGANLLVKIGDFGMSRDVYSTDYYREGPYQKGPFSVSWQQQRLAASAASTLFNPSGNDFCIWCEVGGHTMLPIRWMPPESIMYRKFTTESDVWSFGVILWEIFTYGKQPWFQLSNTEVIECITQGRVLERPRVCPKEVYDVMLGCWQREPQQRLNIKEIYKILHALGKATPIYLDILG

Molecule | trkC tyrosine phosphorylation, half maximum effective concentration (EC50) [1] [nM] | survival of embryonic rat trigeminal neuron cultures, EC50 [2] [nM] | Kd (human trkC) [nM]
NT3 (ligand) | 1.09 | 0.00073 | 
B1 |  |  | ~0.28
